Experiment: label from the status in PepcDB records
With “MEPCELSANTVIAHPRALTDKMTLIRDAGPSKFQVFPTPISEQGDAYYDAKRQALYDHYHPLEISPVIPIDEKTKLMEEWWGKTHELLIEGGLTYDAIKKSVANSSIAFREGVSELFEFLEKKEIPVLIFSAGLADVIEEVTLKSISLLELLSYFCCLYNEYAFVAYSHSYQVLRQNLDRTFKNVKIVSNRMVFNDDGQLVSFKGKLIHVLNKNEHALDMAAPLHDRLGVDIGEEDEENVNMKERRNVLLMGDHLGDLRMSDGLDYETRISIGFL” the protein production was “failed”.
For “MEPRVGNKFRLGRKIGGGSFGEIYLGTNIQTNEEVAIKLENVKTKHPQLLYESKLYKVLQGGTGVPNVKWYGVEGDYNVLVIDLLGPSLEDLFNFCSRKLSLKTVLMLADQMINRIEFVHQKSFLHRDIKPDNFLMGLGRRANQVYVIDFGLAKKYRDSNHQHIPYRENKNLTGTARYASMNTHLGIEQSRRDDLESLGFVLMYFLKGSLPWQGLKAGNKKQKYEKISEKKVSTSIEALCRGYPSEFASYFHYCRSLRFDDKPDYAYLKRLFRDLFIREGFQFDYVFDWTILKYQQSQISTPPPRHHGPVVGPSSALPPAITSAERPSGGDEARPSGWSSGIPRRNSGQIFNSGSLAKQKAPVSSDPAISKDVVLSSSSFLRATGSSRRAAVSSSREAAVLGTDSEPSNPQIVEAGSGSNSKIPVSRNSPIVSSEINKLSSPSRATTSVMKNYEANLKGIESLHF”, the protein production was “not failed”.
For “MEPSSLVLALEQTSEVLGKEPIVPFAILLVVLLVVPILFERLRLPGIVGLVLSGLVLGPSGWNLFHTKSPMISLLSDIGLVYLMFVAGLEVDLELWRRRQRRALGFGCVSFTIPLLIGTLVGRFFHFGWNTSVLIGSLLTSYSLLAYPIINRLGVISNQAVTITIGATVFTDISALIVLAICIPAFQMGMSNIYQILSLLGWLIIYSIVILVGFDWAGREFFRRSGDDEGNKFLFVLLTVFLAVVVAQLIGIEKILGAFLAGLAVNEAVGEGPVKEKIVFVGSVLFIPIFFINLGLLIDLPGLVNSLFTLQLTSLIVISLVASKFIAAWLAKVFYGYSWQEMLTMWSLSIPQVGTTLAATFVGYHTGLLSSAVLTSVVILMLITATLGPLITSRTARALTTVSITESVDANLPEPQVIETQNGNFTIVVPIYNPHTQQYLVEMAALLAHQAQGRIIPLTIATAAAHMDAPQLESTLQRSERLLAKATSQSQALGVAASPLLRIDDASAPGISRAAREQKANLIVMGWGKRTGLRARLFGNVIDNVLWSSHCPVAVTRLVESPKKIQRILVPVENLITPTLQPVQFAQMLAEANQAQVTVLNVCDRRTSSSKIASRRSQLALLVSKLALPNSPEVQIIAHENAAQAILQAARLYDLVVLPFIRNRTSPGGLALSDVTTQLASQLTCSIVMLGEPQRLQTGNITSVAPNTTTAV”, the protein production was “failed”.
For “MEQHHVRSLLKPSAYPDPTGSVELVQTHVSYIFLTDNFAYKVKKPVDFGFLNFSTPDRRRFYCEEEVRLNRRLCPDIYLGVAEVRDTPAGAAFVGEGQVIDHAVKMKRLPADRMLDRLLSAGLAGEPEIRAVARVVGTFHLEAEHSSEIDAFGDLATINANWVENFQQTRPYCGITLSAGDHDFIRGWVERFMAERVDLFAARVGDGRIRDGNGDIHMENICLGADGRVCIFDCIEFNNRFRYGDTAADIAFLLMDFDFVLRPDLGAAFLDEYTRITNDASVVEMIDFYKVYRAFVRGKVESMRLSDPQIPENEKQAAAARASRYFRLARGYAVRQGLPPTLFITCGLTGTGKSRLSRELSLDLGLEIASSDVVRKELAGLRSTERPDQDYGAGIYTDRFSLLTYGELERRARVALEGGRSIVVDATFRRRADRERFGALARDAGATFVILHAVCPEPTIRSRLNSRQKDRSEPSDGTWEVYLRQKDEFDPPSDQEGNLLCIDTSDTASAMVDKVLHGLELLPCGKS”, the protein production was “failed”.
For “MEQIILDIIEFLKQFSYFGVVLALTFEFIPAEVVLPMVGYWVYEGDMNFWLAVLAGTLGGTTGPLTLYALGYYGGRPLLIKYGKYFFIKEEQIQKADDFFEKYGPVVAFVGRFVPGVRTLISVPCGMAKMNIWKFSIYTFVAMFPLTTLYVYFGMKLGPHWEKAADVVGQYMLPILGGVILIVASIFVYKYMKKRNKTESI”, the protein production was “not failed”.
With “MEQKQQSERLGTEAIPKLLRSLSIPAMIGMFVMALYNVVDTIFISYAVGIEGVAGVTIAFPIMMIMMSMAGALGIGGASVISRRLGERRGEEANQVFGNILTVILVLSVIGFISAFTLLGPALQLFGATSVTQGYATDYLFPILLGSIFFFFAFAANNIIRSEGNATFAMVTMIVPAVLNILLDVLFIFGLNMGVLGASIATVIAQASVTGLVLRYFLTGKSTLSLHWSDLRMKGSVIKEVCLVGLPAFVQQSSASLMMIAINSMLLRFGSDFYVGVFGLVQRIMMFVMMPMMGIMQAMQPIVGYNYGAKQYSRLRETVMLGFKVATIFSIGIFALLMLFPEALLRVFTADREVIQAGVSAMHILFCVTFLIGAQIVAGGLYQSLGKPKQALILSLSRQIIFLIPLVLILPHIFGLSGVWWAFPIADVLSFILTVVLLYRDRNVFFLKTKEERELDLVKTASST” the protein production was “failed”.
For “MEQLSDSDHRDSADATTSSCQSTTAEDGQCGGGGEAMARGLSAMLESVIKDFDSKALDTLNSQDELSGSLDRLVQDYAQINPIDPIKFLNHYIAIGLTKLLKN”, the protein production was “failed”.
With “MEQNNIKEQLISFFNQACSTHQERLDFICSTRESDTFSSVDVPLEPIKNIIEITKDENQQIEITKIAVNNIKTLSSVGATGQYMASFFSTNSEPAIIFCVIYFLYHFGFLKDNNKKQIIKKAYETIADNIADYLNEN” the protein production was “not failed”.
In the case of “MEQPMKPTVIITGASSGVGLYGAKALIDKGWHVIMACRNLDKTQKVADELGFPKDSYTIIKLDLGYLDSVRRFVAQFRELGRPLKALVCNAAVYFPLLDEPLWSADDYELSVATNHLGHFLLCNLLLEDLKACPDADKRLIILGTVTANSKELGGKIPIPAPPDLGNFEGFEAGFKKPIAMINNKKFKSGKAYKDSKLCNMLTTRELHRRFHQETGIVFNSLYPGCVADTPLFRNHYSLFRTIFPWFQKNVTKGYVSQELAGERVAMVVADDKFKDSGVHWSWGNRQQAGREAFVQELSEQGSDAQKAQRMWDLSEKLVGLV”, the protein production was “failed”.
In the case of “MEQPYVYAYPQGSGPSGAPTPQAGGVVVDPKYCAPYPIDMAIVRKMMSLTDGNFVITDVNGNLLFKVKEPVFGLHDKRVLLDGSGTPVVTLREKMVSMHDRWQVFRGGSTDQRDLLYTVKRSSMLQLKTKLDVFLGHNKDEKRCDFRVKGSWLERSCVVYAGESDAIVAQMHRKHTVQSVFLGKDNFSVTVYPNVDYAFIASLVVILDDVNREDRAA”, the protein production was “not failed”.
For “MEQRPYSLCLLRLSALGDITHVLPLVRTLQRERPQARLHWIIDTMGSKLMDGLDGIHFHVYDKHTGLRGMRALRAELTPLGHFDALLHMQVSLRANLLSAFVPAQRRIGYDHNRSKDLHGLFINERIPDNPGIHVLDAIGSFCEPLGLVQREVRWDLPVSEEARAWAWAQWNNDGRPVLMISPCSSHTHRNWQAKRYAAVAEHASAQGWRIVLCGGRSTLERQTADTILAQTQVPLLDMVGKDTLKQLPALLERADLVMTPDSGPMHIANALGKKVLGLHAASNPHRSGPYSDLRYCVNRYDAAAHKYLGKPSNMLKWGTKIESNGVMDLVTVEDAIAAFERYRADYAHH”, the protein production was “failed”.
For “MEQYKLVLEGAKQLKWETNEIKDIQDDEIIVKTIAGSISIGAELPQYNGSDVTDPHPFYPRKTGYESYGEVIEVGNQVTHVNVGDKVVSFYGHETIGIVKAHKVIRVPSSIQPKIALLSILSCDAAKGVLKLNPRQDEKVLIIGMGVIGLLACYFLKYYVGIEHVDVVEPNKNRRDFAKKFGTKNIYDSEEKIIETYNYGFECSATNSGFHTLQKALKTNGKICILSDGNIEELTLTANFYQKELQIIGSSDGYDYQKHADWFFEEIGKTPFIEEIFQHEIHYTSLIQCFDELSLGIIKPLKVYVSYE”, the protein production was “failed”.
In the case of “MERDENYLRAKKRVENLKAFYIHLTVYILVNLMLFFINISSDSSKLWFLYPLAGWGIGIVIHALTTFPVGIFGKEWEERKIKEYMEKDK”, the protein production was “failed”.
With “MERDTVLTATPTIDADLADATSCATPSRTAVSPLLPVLAALAAVVLWGGAFPAMKVAVQTLGTWQMMWARMVFALLLLVPLARRLAPARIERRDLPLLAGMALMQPCLYFLCESTALQLTTSSQAGVMAASMPLMMAVGGFLLGEKVSPRLWFGVGVSCIGVAWLTSSGGEGGGSAPDPFTGNLLELAAMACATGSSLCIGALISRGKGRWNALTLTGIQTLAGAVFFLPGAPGVIGGVADWSTEVLLAVVYLGGASSLGAFGLYNWALGHMPASRAGNFINLVPVAAIFFGWLLLGETLTTTQYLATGLVMGGVLMGTRAR” the protein production was “failed”.
In the case of “MERGVDNWKVDCKCGTKDDDGERMLACDGCGVWHHTRCIGINNADALPSKFLCFRCIEL”, the protein production was “not failed”.
For “MERHVNYTLIGGLFFLCLVCMVGFILWLGHLGLDDGKYYEYVVYTDKDLGGIATNSPINYKGIQVGNVIKVGFAKDKVGVVRLDLMIKSSVKIRKDSKVAVSSRGFMGLKFLALEQSHNEEFYGSGDKGERILIFKEGLMDRLSGDANQVVQEVMKAIRNVNRILDDENVEKFKHILASVDDLIANLDSRKTQFDSLISNANNLVSNVNNVALDVDKRLKQGQYDFKAMFTPLIMQAQLSLRNIDNFVEKGSALIDKFDANPYKTIFGERK”, the protein production was “failed”.
In the case of “MERKINRREKEKEYEGKHNSLEDTDQGKNCKSTLMTLNVGGYLYITQKQTLTKYPDTFLEGIVNGKILCPFDADGHYFIDRDGLLFRHVLNFLRNGELLLPEGFRENQLLAQEAEFFQLKGLAEEVKSRWEKEQLTPRETTFLEITDNHDRSQGLRIFCNAPDFISKIKSRIVLVSKSRLDGFPEEFSISSNIIQFKYFIKSENGTRLVLKEDNTFVCTLETLKFEAIMMALKCGFRLLTSLDCSKGSIVHSDALHFIK”, the protein production was “failed”.
For “MERKKLIAKFVEIASEKMGKDLETVDEENTFKELGFDSIDVIDLVMFFEDEFALRIEDEEISKIRKVKDLIDIVIKKLEEIDDEVSEG”, the protein production was “not failed”.
In the case of “MERLAPAKVNLGLSVRFRREDGYHELHTLFAPFSLADRLVVEPVSSGLHFQGPYGRENLAYRAASLYLEAAGQPGGVRILLEKRIPEGAGLGGGSSDAAQVLLALQALYPAEVDLFALARTLGADVPFFLLGRGAEARGVGERLKPLALPPVPAVVFFPGLRVPTPLVYRAVRPEDFGPDLPVEAILEALARGEEPPYWNSLEGPAFRLFPELKEVRGRMRALGLRGVLMSGSGSAFFGLAEGPDHARRAAEALRAWGRAWAGTLGGGDAGSGPA”, the protein production was “not failed”.
For “MERMMNKRILKGTLTAIAALMSAHAFAGQEVTVYTAFETDLLAKYKSAFEKENPDIEIKWVRDSTGIMTAKLLAEKDNPRAEVVWGLAGSSMALLKDQGVLKPYTPKGANELRANLNDPQAQQAWYGNDAFFNAVCFNEAVAKQLNLPKPQSWEDLTNPVYKGHIAMPNPASSGTGYMQVSAWLQNMGEDKAWDYMQRLDQNIAHYTHSGSKPCVQAGMGEVAIGISMATRGAKLKTQGAPLDVIVPNGIGWESEAVGLVKESDAAKRVVDWSVSKAANELYIESYPIVGHQDVSKQVPNYPNVEKVMAKMDFTQMGVDRARVLQTWSEKFDAKSEPKS”, the protein production was “failed”.

Source: a protein production outcome set (Wang et al. 2014)
